Here are results for two substances from publication PMC11368712.

A word on the stoichiometry N: it is a count of units in the complex or per binding partner.

Assay [1] concerns the target AgaBb1180 (Bifidobacterium bifidum JCM 1254). In words: SEC. (In general: SEC sorts molecules by how far they enter the pores of the column.)
The target in assay [2] is AgaBb1191 (α-galactosidase from Bifidobacterium bifidum JCM 1254, residues 23-1191, without the N-terminal T7-tag) (Bifidobacterium bifidum JCM 1254). In words: SEC.

The substance AgaBb1180 (domain or fragment) gave a stoichiometry N in assay [1] of 2.
In assay [2], “AgaBb1191 (α-galactosidase from Bifidobacterium bifidum JCM 1254, residues 23-1191, without the N-terminal T7-tag) (domain or fragment)” gave a stoichiometry N of 2.
